Assay results as given in patent US20040014707A1 (published 2004).

Assays:
[1] = molecular target: Bacillus anthracis protective antigen PA83 (Bacillus anthracis, UniProt P13423 30-764); assay: SPR (BIACORE), PA83 on CM5 chip, 4 concentrations of monomeric scFv
EGFP-PA32 fusion protein = EGFP-PA32 fusion protein (Bacillus anthracis); assay: SPR (BIAcore), […], single concentration
recombinant PA32 protein = recombinant PA32 protein (Bacillus anthracis); assay: SPR, PA32 coupled to CM5 chip, single scFv concentration

Binder | Kd [1] [nM] | binding result (EGFP-PA32 fusion protein) | binding result (recombinant PA32 protein)
scFv#4 (scFv) scFv: QVQLVESGGGLVQPGGSLRLSCSASGFTFSSYAMHWVRQAPGKGLEYVSAISSNGGSTYYADSVKGRFTISRDNSKNTLYLQMSSLRAEDTAVYYCVKDLHVGRLQLGVFDYWGQGTLVTVSSGGGGSGGGGSGGGGSSELTQDPAVSVALGQTVRITCQGDSLRSYYASWYQQKPGQAPVLVIYGKNNRPSGIPDRFSGSSSGNTASLTITGAQAEDEADYYCNSRDSSSTHRGVFGGGTKLTVLGAAAEQKLISEEDLNGAAHHHHHH | 310 | – | –
scFv#1 (scFv) scFv: QVNLRESGGGLVQPGGSLRLSCAASGFTFSSYAMSWVRQAPGKGLEWVSAISSNGGSTYYADSVKGRFTISRDNSKNTLYLQMSSLRAEDTALYYCARERGAAAASDYWGPGTLVTVSSGGGGSSGGGSGGGGSQSVLTQPPSASGTPGQRVTISCSGSSSNIGSNSVNWYQQLPGTAPKLLIYSNSNRPSGVPDRFSGSKSGTSASLAISGLRSEDEADYYCAAWDDSLSGRVFGGGTKLTVLGAAAEQKLISEEDLNGAAHHHHHH | 190 | – | –
scFv#12 (scFv) scFv: QVQLVESGGGVVQPGRSLRLSCAASGFTFNNHAMEWVRQAPGKGLEWVSGINWDGGSTGYADSVKGRFAVSRDNAKNSLYLQINSLRDEDTAVYYCARANWGRIDYWGQGTLVTVSSGGGGSGGGGSGGGGSSELTQDPAVSVALGQTVRITCQGDSLRRYYASWYQQKPGQAPVLVIYGKNNRPSGIPDRFSGSSSGNTASLTITGAQAEDEADYYCHSRDSSGTHLRVFGGGTKLTVLGAAAEQKLISEEDLNGAAHHHHH | – | no binding | no binding
scFv#24 (scFv) scFv: QVQLVESGGGLVQPGGSLRLSCSASGFTFSSYAMHWVRQAPGKGLEYVSAISSNGGSTYYADSVKGRFTISRDNSKNTLYLQMSSLRAEDTAVYYCVKDLHVGRLQLGVFDYWGQGTLVTVSSGGGGSGGGGSGGGGSSELTQDPAVSVAVGQTVKITCQGDSLRSYYATWYQQKPGQAPVLVIYGKNSRPSGIPDRFSGSSSGTTASFTITGAQAEDEADYYCNSRDSTNNQLFGGGTKLTVLGAAAEQKLISEEDLNGAAHHHHH | 430 | – | –
